{
  "source": "paper PMC8339339",
  "about": "(Redox Biology, 2021)",
  "molecular_target": "the molecule itself",
  "assay": "non-reducing SDS-PAGE with immunoblot",
  "data": [
    {"protein": "His-tagged human recombinant peroxiredoxin 1 with Cys83 changed to Ser83 (natural protein) MSSGNAKIGHPAPNFKATAVMPDGQFKDISLSDYKGKYVVFFFYPLDFTFVCPTEIIAFSDRAEEFKKLNCQVIGASVDSHFSHLAWVNTPKKQGGLGPMNIPLVSDPKRTIAQDYGVLKADEGISFRGLFIIDDKGILRQITVNDLPVGRSVDETLRLVQAFQFTDKHGEVCPAGWKPGSDTIKPDVQKSKEYFSKQK", "values": [
      {"measurement": "stoichiometry N", "value": 2}
    ]}
  ]
}
